{"source": "patent US20240360242A1", "about": "(KISOJI BIOTECHNOLOGY, published 2024)", "binders": {"B1": {"name": "KD001 (antibody, human IgG1, V domains shown)", "VH": "QVQLQESGGGMVHPGGSLRLSCAASGFTFSGSDMSWVRQAPGKGPEWVSYITSGGTTYYPDSVKGRFTISRDNAKNTLYLQMNSLTPDDTALYRCAKARLTDSHYVEDAWGQGTQVTVSS", "notes": "also called anti-TROP2 sdAb KD001"}, "B2": {"name": "KD004 (antibody, human IgG1, V domains shown)", "VH": "B1 VH with M11L, H13Q, G16R, S53G, G54S, I69T, T77M, T86K", "notes": "also called anti-TROP2 sdAb KD004"}, "B3": {"name": "KD005 (antibody, human IgG1, V domains shown)", "VH": "B1 VH with M11L, H13E, P14A, T86K, A98S", "notes": "also called anti-TROP2 sdAb KD005"}, "B4": {"name": "KD002 (antibody, human IgG1, V domains shown)", "VH": "QVQLQESGGGMVQVGGSLRLSCAASGFPFSSADMSWVRQAPGKGPEWVSYINADGSKTYYPDSVKGRFTISRDNAKNTLYLLMNNLKPEDTALYRCARAKLTDTHYVEDYWGQGTQVTVSS", "notes": "also called anti-TROP2 sdAb KD002"}, "B5": {"name": "KD003 (antibody, human IgG1, V domains shown)", "VH": "B4 VH with V14P, P28T, S31N, A32Y, D54G, K57N, Y59D, T78M", "notes": "also called anti-TROP2 sdAb KD003"}}, "note": "Residue numbers refer to the chain shown, from its start.", "data": [{"biological_target": "T1, human TROP2 cysteine poor domain (CPD), recombinant (human, UniProt P09758 147-274)", "T1 sequence": "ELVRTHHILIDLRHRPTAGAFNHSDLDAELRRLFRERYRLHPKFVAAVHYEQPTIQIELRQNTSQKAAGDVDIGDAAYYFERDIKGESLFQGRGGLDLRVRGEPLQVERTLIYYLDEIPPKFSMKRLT", "test": "immunoblot, 1 µg/mL antibody, anti-human IgG-HRP", "method": "Samples of recombinant proteins of human TROP2 extracellular domain (ECD) (Sino Biological, Cat. no. 10428-H08H) and human TROP2 cysteine poor domain (CPD) were prepared for SDS-PAGE analysis under reducing or non-reducing conditions with NuPAGE™ LDS Sample Buffer (ThermoFisher Cat. no NP0007) with NuPAGE™ Sample Reducing Agent (ThermoFisher Cat. no. NP0004) or without reducing agent. Samples under reducing condition were denatured by heating at 70° C. for 10 minutes. Samples (16 μL) were loaded onto 4-12% Bis-Tris mini-gels (1.5 mm, 15 wells) or 250 ng of samples were loaded onto 14% Tris-glycine mini-gels alongside a BSA standard. […] Gels were stained using GelCode™ staining reagent (Thermo Fisher, Cat. no. 24594).\nProteins were transferred to nitrocellulose membranes using the iBlot™ system (Thermo Fisher, Cat. no. IB301031) according to the manufacturer's instructions. Membranes were blocked by incubation in PBS/0.1% Tween™ 20/5% Milk for 1 hour at room temperature with shaking, followed by incubation with 1 μg/mL of Anti-TROP2 antibodies or the isotype control (IgG1 isotype) in 20 mL of PBS/0.1% Tween™ 20/5% milk. Membranes were washed three times for 10 minutes with PBS/0.1% Tween™ 20. Membranes were incubated with HRP-conjugated goat anti-human IgG antibody (Sigma-Aldrich, AP113P) diluted at 1:10000 in blocking buffer for 1 hour at room temperature with shaking. Membranes were washed three times for 10 minutes with PBS/0.1% Tween™ 20. The signal was visualized using Super Signal™ West Pico PLUS (Thermo Fisher, Cat. no. 34080) according to the manufacturer's instructions. Images were captured using the Azure Biosystem imaging system.", "values": [{"binder": "B1", "binding result": "no binding (tested: 1 µg/mL)"}, {"binder": "B2", "binding result": "no binding (tested: 1 µg/mL)"}, {"binder": "B3", "binding result": "no binding (tested: 1 µg/mL)"}, {"binder": "B4", "binding result": "no binding (tested: 1 µg/mL)"}, {"binder": "B5", "binding result": "no binding (tested: 1 µg/mL)"}]}, {"biological_target": "T2, recombinant human TROP2 extracellular domain (aa 1-274) comprising His tag (human, UniProt P09758 27-274)", "T2 construct": "Used here for all assays on recombinant human TROP2 (ELISA, immunoblot, SPR, crystal), although only some of them name the catalogue number; also called human recombinant TROP2; recombinant human TROP2 protein; not shown: His tag", "T2 sequence": "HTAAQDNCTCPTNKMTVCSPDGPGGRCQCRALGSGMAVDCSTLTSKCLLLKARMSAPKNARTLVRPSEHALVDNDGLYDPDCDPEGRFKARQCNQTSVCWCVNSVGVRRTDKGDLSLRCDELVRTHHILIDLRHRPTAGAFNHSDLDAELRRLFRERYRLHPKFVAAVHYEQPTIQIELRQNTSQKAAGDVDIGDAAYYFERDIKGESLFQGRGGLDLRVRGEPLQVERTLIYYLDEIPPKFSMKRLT", "test": "competitive ELISA on coated recombinant human TROP2, competitor KD003-His (14285.7 pM per text), anti-His-HRP", "method": "(§1) The epitope characterization was assessed by competitive ELISA (FIG. 8 and FIG. 9). Microplates were coated with human recombinant TROP2 at 4° C. overnight. After washing, plates were blocked with blocking buffer (PBS+2% BSA), for 1 hour at room temperature. Meanwhile, the dilution for anti-TROP2 VHH sdAbs was prepared with blocking buffer making two different dilutions depending on the tag. For sdAbs with His tag, the antibody was diluted to 28571.4 pM. For sdAbs without tag, antibodies were serially diluted from 2857142.9 pM to 0.29 pM (8 dilutions, 10×). After that, equal volume of the his-tagged sdAbs and serial diluted non-tagged sdAbs were mixed, to make the final concentration of his-tagged sdAbs 14285.7 pM and non-tagged sdAbs from 1428571.4 pM to 0.14 pM. After washing two times, the mixed antibody contents were added into the wells and the plates were incubated for 2 hours at room temperature. The HRP-conjugated anti-6× His was diluted to 1:5000 and added to the wells after washing three times. Any unbound conjugate was removed by washing after 1 hour incubation at room temperature, and the colorimetric reaction was performed by adding the same volume of Supersignal ELISA Pico Luminol/Enhancer and SuperSignal ELISA Pico Stable Peroxide Solution and detected on SpectraMax i3x Microplate Reader. Positive and negative controls were included in each plate.", "units": {"IC50 (read off the curve)": "nM"}, "values": [{"binder": "B1", "IC50 (read off the curve)": "~40"}, {"binder": "B2", "IC50 (read off the curve)": "~40"}, {"binder": "B3", "IC50 (read off the curve)": "~40"}, {"binder": "B4", "IC50 (read off the curve)": "~60"}, {"binder": "B5", "IC50 (read off the curve)": "~30"}]}, {"biological_target": "T2, recombinant human TROP2 extracellular …", "test": "competitive ELISA on coated recombinant human TROP2, competitor KD002-His (14285.7 pM per text), anti-His-HRP", "method": "as §1", "units": {"IC50 (read off the curve)": "nM"}, "values": [{"binder": "B1", "IC50 (read off the curve)": "~40"}, {"binder": "B2", "IC50 (read off the curve)": "~40"}, {"binder": "B3", "IC50 (read off the curve)": "~40"}, {"binder": "B4", "IC50 (read off the curve)": "~60"}, {"binder": "B5", "IC50 (read off the curve)": "~40"}]}, {"biological_target": "T3, BSA (bovine, UniProt P02769)", "T3 construct": "also called bovine serum albumin", "T3 sequence (P02769 25-607 limits assumed)": "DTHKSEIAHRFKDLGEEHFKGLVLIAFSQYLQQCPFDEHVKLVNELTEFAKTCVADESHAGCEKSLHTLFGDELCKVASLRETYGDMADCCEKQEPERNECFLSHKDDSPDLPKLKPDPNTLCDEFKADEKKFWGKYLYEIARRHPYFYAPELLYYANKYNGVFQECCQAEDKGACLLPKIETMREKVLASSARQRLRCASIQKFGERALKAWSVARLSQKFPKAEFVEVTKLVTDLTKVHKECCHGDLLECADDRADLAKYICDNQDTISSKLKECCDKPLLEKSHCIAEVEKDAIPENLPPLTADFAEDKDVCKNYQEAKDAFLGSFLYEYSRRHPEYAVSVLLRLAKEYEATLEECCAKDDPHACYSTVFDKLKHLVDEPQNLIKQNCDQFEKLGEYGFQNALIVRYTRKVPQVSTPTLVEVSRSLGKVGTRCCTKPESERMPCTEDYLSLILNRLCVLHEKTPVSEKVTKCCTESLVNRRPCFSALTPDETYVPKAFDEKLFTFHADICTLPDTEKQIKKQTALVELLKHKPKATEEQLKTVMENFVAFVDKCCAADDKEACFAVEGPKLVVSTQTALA", "test": "ELISA on coated recombinant protein, 200 nM antibody, RLU", "values": [{"binder": "B1", "binding result": "no binding (tested: 200 nM)"}, {"binder": "B2", "binding result": "no binding (tested: 200 nM)"}, {"binder": "B3", "binding result": "no binding (tested: 200 nM)"}, {"binder": "B4", "binding result": "no binding (tested: 200 nM)"}, {"binder": "B5", "binding result": "no binding (tested: 200 nM)"}]}, {"biological_target": "T4, recombinant human EpCAM (human, UniProt P16422 24-265)", "T4 construct": "also called rhEpCAM", "T4 sequence (looked up)": "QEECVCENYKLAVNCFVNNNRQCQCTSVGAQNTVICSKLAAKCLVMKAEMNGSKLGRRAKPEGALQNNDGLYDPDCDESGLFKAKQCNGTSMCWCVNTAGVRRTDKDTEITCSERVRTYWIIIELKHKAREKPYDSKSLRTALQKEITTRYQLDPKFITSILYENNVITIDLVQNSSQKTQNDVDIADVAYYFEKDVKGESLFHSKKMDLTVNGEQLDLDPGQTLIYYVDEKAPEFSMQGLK", "test": "ELISA on coated recombinant protein, 200 nM antibody, RLU", "values": [{"binder": "B1", "binding result": "no binding (tested: 200 nM)"}, {"binder": "B2", "binding result": "no binding (tested: 200 nM)"}, {"binder": "B3", "binding result": "no binding (tested: 200 nM)"}, {"binder": "B4", "binding result": "no binding (tested: 200 nM)"}, {"binder": "B5", "binding result": "no binding (tested: 200 nM)"}]}, {"biological_target": "T5, recombinant human IGFBP-1 (human, UniProt P08833 26-259)", "T5 construct": "also called rhIGFB-1", "T5 sequence (looked up)": "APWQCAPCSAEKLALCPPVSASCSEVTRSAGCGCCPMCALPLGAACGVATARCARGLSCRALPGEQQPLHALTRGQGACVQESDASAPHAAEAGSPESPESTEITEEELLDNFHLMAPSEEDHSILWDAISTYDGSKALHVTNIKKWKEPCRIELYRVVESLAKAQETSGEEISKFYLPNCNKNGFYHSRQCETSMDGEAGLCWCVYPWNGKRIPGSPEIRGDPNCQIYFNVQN", "test": "ELISA on coated recombinant protein, 200 nM antibody, RLU", "values": [{"binder": "B1", "binding result": "no binding (tested: 200 nM)"}, {"binder": "B2", "binding result": "no binding (tested: 200 nM)"}, {"binder": "B3", "binding result": "no binding (tested: 200 nM)"}, {"binder": "B4", "binding result": "no binding (tested: 200 nM)"}, {"binder": "B5", "binding result": "no binding (tested: 200 nM)"}]}]}
